Assay type in all cases: cell-based, human
Experiment [1] relates to MKN-45 and Caco-2 cells. The experiment is described as follows: Aldefluor / CD44 staining of stem-like population by flow cytometry. Conditions: for effect on G-CSF-induced stem marker expressing cell expansion (aldehyde dehydrogenase high, CD44): treatment with ERK1/2 or RSK inhibitor before G-CSF. On the procedure: (§1) Flow Cytometry: Single-and multi-color immunostaining was performed according to standard surface and intracellular FACS staining Biolegend protocols (Biolegend, San Diego, Calif.). Anti-Ep-cam Alexa-Fluor 488 (Biolegend 9c4) was used for identification of epithelial cells. The purity of MF was analyzed by staining for CD90-PE (Biolegend Thyl) and α-smooth actin-FITC (R&D Systems 1C14206) for flow cytometry compared to isotype controls. Anti-G-CSFR-PE (clone 1 mm 741 Biolegend) and G-CSF-FITC (clone 85FSCSF eBioscience) were used for the analysis of G-CSFR surface expression and intracellular G-CSF after 4 hour exposure to Brefeldin A compared to isotype controls. Anti-proliferating cell nuclear antigen (PCNA) (clone PCNA01, Biolegend) was used as a proliferation marker. Cancer stem-like populations in carcinoma cell lines were examined by staining with Aldefluor (Stem Cell Technologies, Vancouver, BC) and anti-CD44-APC (Biolegend clone BJ18) using the manufacturer's Aldefluor staining protocol compared to isotype control. All samples were analyzed on a Guava easyCyte 8HT flow cytometer (Millipore, Bellerica, Md.), and analyzed using FCS Express software (DeNovo Software, Los Angeles, Calif.).
Therefore, assessment of MKN-45 and Caco-2 cells for a similar population was undertaken. […] Cells were also stained with CD44, since in gastric and colon cancers CD44 has also been shown on cells with stem-like features (Huang et al., 2009; Katsuno et al., 2012; Su et al., 2011b; Takaishi et al., 2009; Wakamatsu et al., 2012). To examine Aldefluor staining, cells were gated on the CD44 positive population. Then, another gate was set using the diethylaminobenzaldehyde (DEAB) inhibitor of aldehyde dehydrogenase as a negative control (FIG. 5A). […] G-CSF treatment expanded this population from 6% to 16% of the cell population (FIGS. 5C). Further, 48 hour treatment of MKN-45 and Caco-2 cells with 10 ng/ml of G-CSF led to an approximately 10% increase in the stem-like Aldefluor^highCD44^+population (FIG. 5D) with both cell types.
In parallel, ERK1/2 and RSK inhibition were also examined for effects on stem-like populations.
On the technique in general: A flow cytometer gives signals particle by particle.

The test system of experiment [2] is MKN-45 and Caco-2 carcinoma cells. The experiment is described as follows: G-CSF induced proliferation (CyQuant) with ERK1/2 or RSK inhibitors. Conditions: 10 μM inhibitor, 30 min before recombinant G-CSF. On the procedure:
Proliferation: MKN-45, AGS, Caco-2 and DLD1 cells (2500 per well) were added to wells of a 96 well plate and incubated with 5-25 ng/ml of recombinant G-CSF (eBioscience) or conditioned media from MF for 48 hours. Conditioned media included a mixture of 50% media from cultured myofibroblasts and 50% fresh media for nutrients. Media from MF was taken when cells were 80% or greater confluent before passage (from approximately 1×10^6 cells). Proliferation was measured using CyQuant dye for DNA content (Life Technologies). […] Samples were read on a Tecan fluorescent plate reader (Mannedorf, Switzerland).
However, most of the studies have been performed in myeloid cells or neutrophils. Thus, we sought to examine G-CSFR signaling in MKN-45 and Caco-2 cells. […] Cells were lysed and protein levels normalized. […] A 5-fold increase in phosphorylation was found in MKN-45 and a 10-fold increase in phosphorylation was found in Caco-2 cells (FIGS. 6A and B). […] ERK1/2 or RSK inhibitors were added to some wells of cells before addition of G-CSF, and proliferation examined by CyQuant proliferation assay for DNA content.

Experiment [3] deals with ERK1/2 and RSK1 phosphorylation in Caco-2 cells. Briefly: Luminex signaling bead array, ERK1/2 and RSK1 phosphorylation, Caco-2. Particulars: recombinant G-CSF 10 ng/ml. On the procedure: (§2) Luminex Arrays: G-CSF levels were measured in cell culture supernatants by singleplex fluorescent bead based array (Life Technologies) according to manufacturer's instructions. ERK1/2 and RSK phosphorylation were measured by Milliplex MAPmates phospho-ERK1/2 and RSK arrays (EMD Millipore, Billerica Mass.) according to the manufacturer protocol. All samples were analyzed on a Luminex 200 machine.
(§3) Some studies have shown that G-CSFR signaling induces signaling pathways that lead to cell proliferation (Kamezaki et aL, 2005; Wang et al., 2008). However, most of the studies have been performed in myeloid cells or neutrophils. Thus, we sought to examine G-CSFR signaling in MKN-45 and Caco-2 cells. Cells were pre-incubated with serum free media for 2 hours before treatments and recombinant G-CSF (10 ng/ml) was added to wells in 15 min intervals. Cells were lysed and protein levels normalized. […] A 5-fold increase in phosphorylation was found in MKN-45 and a 10-fold increase in phosphorylation was found in Caco-2 cells (FIGS. 6A and B). […] Since we found phosphorylation of these signaling molecules after G-CSF treatment, we further sought to characterize the role of these pathways in the increased cell proliferation resulting from G-CSF treatment observed in MKN-45 and Caco-2 carcinoma cells shown in FIG. 3. […]

Experiment [4] deals with Caco-2 and DLD1 colon carcinoma cells. The experiment is described as follows: CyQuant proliferation assay for DNA content, colon carcinoma cells. Particulars: recombinant G-CSF 5-25 ng/ml, after 4 days, Caco-2 and DLD1, dose dependent. On the procedure:
(§4) Proliferation: MKN-45, AGS, Caco-2 and DLD1 cells (2500 per well) were added to wells of a 96 well plate and incubated with 5-25 ng/ml of recombinant G-CSF (eBioscience) or conditioned media from MF for 48 hours. Conditioned media included a mixture of 50% media from cultured myofibroblasts and 50% fresh media for nutrients. Media from MF was taken when cells were 80% or greater confluent before passage (from approximately 1×10^6 cells). Proliferation was measured using CyQuant dye for DNA content (Life Technologies). Other samples were incubated with 10 μM ERK activation inhibitor peptide 1 or RSK inhibitor SL0101 (EMD Millipore) for 30 min before addition of recombinant G-CSF. Samples were read on a Tecan fluorescent plate reader (Mannedorf, Switzerland).
(§5) MKN-45 and AGS gastric carcinoma cells and Caco-2 and DLD1 colon carcinoma cells were incubated with increasing doses of recombinant G-CSF (5-25 ng/ml), which were chosen based on reports of serum concentrations in patients (Morstyn et al., 1989). After 4 days (approximately 2 doubling times), proliferation was measured using the CyQuant fluorescent proliferation assay for DNA content. G-CSF treated cells were compared to untreated control cells. […] To further confirm G-CSF induction of cell proliferation, G-CSF treated cells were stained intracellularly for proliferating cell nuclear antigen (PCNA). […]

Experiment [5] deals with gastric and colon carcinoma cells. Briefly: Intracellular PCNA staining by flow cytometry. Conditions: G-CSF treated cells, both cell types. As for the experimental part:
as §1, with “Cancer stem-like populations in carcinoma cell lines were examined by staining with Aldefluor (Stem Cell Technologies, Vancouver, BC) and anti-CD44-APC (Biolegend clone BJ18) using the manufacturer's Aldefluor staining protocol compared to isotype control.” left out
MKN-45 and AGS gastric carcinoma cells and Caco-2 and DLD1 colon carcinoma cells were incubated with increasing doses of recombinant G-CSF (5-25 ng/ml), which were chosen based on reports of serum concentrations in patients (Morstyn et al., 1989). After 4 days (approximately 2 doubling times), proliferation was measured using the CyQuant fluorescent proliferation assay for DNA content. […]

The subject of experiment [6] is ERK1/2 and RSK1 phosphorylation in MKN-45 cells. The experiment is described as follows: Luminex signaling bead array, ERK1/2 and RSK1 phosphorylation, MKN-45. Particulars: recombinant G-CSF 10 ng/ml. As for the experimental part:
as §2, §3

Experiment [7] concerns MKN-45 and Caco-2 cells. The experiment is described as follows: Fluoroblok migration assay (8 micron pores, CFSE-labeled cells). Conditions: 10 ng/ml G-CSF in bottom wells, 4 hours. As for the experimental part:
Migration: MKN-45 and Caco-2 cells were stained with carboxyfluorein succinimidyl ester (CFSE) (Life Technologies) and added to the top of Fluoroblok 96 well plates with […]. Serum free media, media with 10% FBS, recombinant G-CSF, or MF supernatants were added to the bottom of the wells. G-CSF neutralizing antibodies (1 μg/ml) were added to some cultures. The fluorescence of migrated cells was measured after 4 hours of incubation at 37° C. on a Tecan plate reader.
Given the ability of G-CSF to mobilize bone marrow derived hematopoietic cells during systemic administration (Held and Gundert-Remy, 2010), we assessed whether it could increase the migratory ability, and therefore the malignant potential, of gastric and colon cancer cells. MKN-45 and Caco-2 were serum starved overnight, fluorescently labeled with CFSE, and plated on FluorBlok™ plates with 8 micron pores and serum free media in the top of the wells. The bottom wells were filled with serum free media, serum free media containing 10 ng/ml of G-CSF or serum containing media (positive control). […] Both cell types migrated through the pores toward serum as a positive control, and at even higher rates toward G-CSF. […]

Experiment [8] concerns MKN-45 and AGS gastric carcinoma cells. Briefly: CyQuant proliferation assay for DNA content, gastric carcinoma cells. Conditions: recombinant G-CSF 5-25 ng/ml, after 4 days, dose dependent. On the procedure: as §4, §5

A value given as a limit tells only on which side of the number the result lay.

As for `CC(=O)O[C@@H]1[C@@H](OC(C)=O)[C@@H](O)[C@H](Oc2c(-c3ccc(O)cc3)oc3cc(O)cc(O)c3c2=O)O[C@H]1C` [RSK inhibitor, SL0101, reference compound], the “effect on G-CSF-induced stem marker expressing cell expansion (aldehyde dehydrogenase high, CD44)” value in the experiment with MKN-45 and Caco-2 cells [1] is reported as “completely abrogated”. For the same molecule, the “effect on G-CSF induced proliferation” value in experiment [2] is on record as “drastically inhibited”.
On the same counts, the results for “ERK activation inhibitor peptide 1 [ERK1/2 inhibitor, reference compound]” are “completely abrogated” and “drastically inhibited”.

B1: G-CSF: recombinant G-CSF (eBioscience), pro-inflammatory cytokine (protein, UniProt P09920 31-208, looked up)
Granulocyte …: VPLVTVSALPPSLPLPRSFLLKSLEQVRKIQASGSVLLEQLCATYKLCHPEELVLLGHSLGIPKASLSGCSSQALQQTQCLSQLHSGLCLYQGLLQALSGISPALAPTLDLLQLDVANFATTIWQQMENLGVAPTVQPTQSAMPAFTSAFQRRAGGVLAISYLQGFLETARLALHHLA
Consider B1, for which, in experiment [3], the “increase in ERK1/2 and RSK1 phosphorylation” value stood at 10 fold; the “incubation time of peak ERK1/2 and RSK1 phosphorylation” value is on record as 30 min. The “increase in proliferation compared to untreated cells” value in experiment [4] is given as “up to 4.5 fold”. The “increase in the stem-like Aldefluor high CD44+ population” value in the experiment on MKN-45 and Caco-2 cells [1] (48 hour treatment, 10 ng/ml G-CSF, MKN-45 and Caco-2 (both cell types)) was “approximately 10%”. In the experiment on MKN-45 and Caco-2 cells [1] (MKN-45, gated on CD44 positive, untreated 6%), the “stem-like Aldefluor population, share of the cell population after G-CSF treatment” value was 16%. In addition, in experiment [5], the “increase in PCNA staining compared to untreated cells” value is “greater than 2 fold”. Moreover, in experiment [6], the “increase in ERK1/2 and RSK1 phosphorylation” value was determined as 5 fold; the “incubation time of peak ERK1/2 and RSK1 phosphorylation” value is 30 min. For the same molecule, in the experiment with MKN-45 and Caco-2 cells [7], the “increased migration compared to serum containing media” value amounted to 1.5 fold and the “increased migration compared to serum free media” value is at most 4 fold. Besides, the “increase in proliferation compared to untreated cells” value in experiment [8] is on record as at most 2.5 fold.

Source of the values: patent US20160368980A1, “INHIBITION OF GRANULOCYTE COLONY STIMULATING FACTOR IN THE TREATMENT OF CANCER” (STC.UNM, priority 2014, published 2016).
